Measured values published in US20240199757A1 (UNIVERSITY OF CHICAGO, published 2024).

T1: Full-length human NT5E (recombinant, in-house) (human, UniProt P21589 27-549)
T1 construct: also called hNT5E; hNT5EWT
T1 sequence: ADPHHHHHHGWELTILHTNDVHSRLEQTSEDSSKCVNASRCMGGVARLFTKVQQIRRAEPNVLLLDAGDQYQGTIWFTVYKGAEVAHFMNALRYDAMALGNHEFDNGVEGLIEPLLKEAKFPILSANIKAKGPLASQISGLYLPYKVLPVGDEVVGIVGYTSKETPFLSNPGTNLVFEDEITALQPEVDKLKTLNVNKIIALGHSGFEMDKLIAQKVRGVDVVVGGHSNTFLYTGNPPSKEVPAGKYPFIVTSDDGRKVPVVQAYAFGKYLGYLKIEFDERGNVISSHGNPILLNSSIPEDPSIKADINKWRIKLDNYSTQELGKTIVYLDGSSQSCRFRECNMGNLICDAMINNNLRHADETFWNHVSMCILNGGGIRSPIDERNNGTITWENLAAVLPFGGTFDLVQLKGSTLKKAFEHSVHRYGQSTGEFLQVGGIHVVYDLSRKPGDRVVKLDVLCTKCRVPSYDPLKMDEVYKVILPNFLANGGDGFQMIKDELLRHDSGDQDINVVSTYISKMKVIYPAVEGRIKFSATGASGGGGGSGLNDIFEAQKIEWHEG

T2: human NT5E expressed on MDA-MB-231 cells (human, UniProt P21589 27-549)
T2 construct: whole, on cells; also called NT5E-expressing MDA-MB-231 cells; CD73
T2 sequence (looked up): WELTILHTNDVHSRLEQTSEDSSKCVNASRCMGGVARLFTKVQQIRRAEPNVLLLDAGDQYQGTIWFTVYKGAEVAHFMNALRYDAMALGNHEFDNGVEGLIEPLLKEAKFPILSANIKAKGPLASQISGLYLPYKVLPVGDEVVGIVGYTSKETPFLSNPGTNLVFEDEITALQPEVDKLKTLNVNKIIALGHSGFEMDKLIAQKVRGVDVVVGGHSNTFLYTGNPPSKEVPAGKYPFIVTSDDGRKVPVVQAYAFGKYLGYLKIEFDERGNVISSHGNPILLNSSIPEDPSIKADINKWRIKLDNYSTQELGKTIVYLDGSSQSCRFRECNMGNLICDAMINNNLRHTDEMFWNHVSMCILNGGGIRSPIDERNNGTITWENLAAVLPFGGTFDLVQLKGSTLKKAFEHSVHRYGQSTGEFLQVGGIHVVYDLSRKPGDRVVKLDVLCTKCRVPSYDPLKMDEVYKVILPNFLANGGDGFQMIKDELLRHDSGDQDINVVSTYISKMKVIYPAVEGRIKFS

T3: murine NT5E expressed on 4T1 cells (murine, UniProt Q61503 29-551)
T3 construct: whole, on cells; also called mouse NT5E-expressing 4T1 cells
T3 sequence (looked up): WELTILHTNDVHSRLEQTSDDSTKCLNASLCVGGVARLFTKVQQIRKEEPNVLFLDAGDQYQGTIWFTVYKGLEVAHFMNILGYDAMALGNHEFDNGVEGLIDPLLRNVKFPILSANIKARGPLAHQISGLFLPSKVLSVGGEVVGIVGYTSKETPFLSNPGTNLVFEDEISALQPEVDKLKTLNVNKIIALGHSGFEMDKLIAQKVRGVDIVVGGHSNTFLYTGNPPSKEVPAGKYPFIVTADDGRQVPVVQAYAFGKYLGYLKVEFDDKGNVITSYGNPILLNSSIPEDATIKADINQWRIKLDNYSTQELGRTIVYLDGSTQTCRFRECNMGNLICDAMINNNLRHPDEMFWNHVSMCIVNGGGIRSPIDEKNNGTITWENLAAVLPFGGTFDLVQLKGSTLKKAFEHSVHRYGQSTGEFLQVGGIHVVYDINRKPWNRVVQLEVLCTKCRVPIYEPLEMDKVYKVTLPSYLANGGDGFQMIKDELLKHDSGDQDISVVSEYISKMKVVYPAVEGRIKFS


What was measured:
[1] = molecular target: T1, Full-length human NT5E (recombinant, …); test: DSF thermal shift, 1.5-fold molar excess of Fab, 1 mM ATP (NT5E alone 59° C. and 64° C.)
Method: With 1 mM ATP alone (red dashed line), the TM shifts from one transition at 49° C. to two transitions at TM 59° C. and 64° C. […] Thermal shift assays of substrate binding knock-out variants hNT5EDF (FIG. 2B) and hNT5EFF (FIG. 2C) show no change in thermal stability with the addition of ATP.
Thermal stability of samples was analyzed by differential scanning fluorimetry (DSF) using a real-time PCR instrument (Bio-Rad CFX384). Protein samples were mixed with 4× Sypro Orange at a final 4 μM concentration. For target/Fab complexes, 1.5-fold molar excess of Fab was used. All reactions were performed in triplicates in a 384-well plate. Thermal melting curves were monitored from 25° C. to 95° C. in steps of 0.5° C./30 s. Wavelengths of 490 and 575 nm were used for excitation and emission, respectively. The melting temperatures were inferred from the first derivative of the melting curves from the mean of triplicate runs using CFX software provided by the manufacturer.

[2] = molecular target: T2, human NT5E expressed on MDA-MB-231 cells; test: flow cytometry on MDA-MB-231 cells, 1 mM ATP
Method: Flow cytometry analysis of antibodies binding to human NT5E expressed on MDA-MB-231 cells in ATP-free condition (black) or in 1 mM ATP (red). Top panel: (left) 1780 Fab and (right) 1780 IgG titrations. […] Binding was measured at the indicated range of antibody concentrations and is expressed as mean±st. dev of median fluorescence intensity (MFI) of 1-2 replicates. Data were analyzed using OriginLab, and EC₅₀ values are shown next to the fitted curves.
(§1) Human MDA-MB-231 cells and murine 4T1 cells were grown to 90% confluency, detached with 5 mM EDTA for 15 min at 37° C. and then resuspended in 37° C. lx PBS (#10010031, Gibco) supplemented with 1% FBS and 1OpM ZnCl2. Separate working buffers (WB) of PBS and 1% FBS with or without fixed nucleotide concentrations were used throughout all washing steps to maintain constant condition. In 96-well plates (#3799, Costar), 0.2×10⁶ cells were added per well. The plates were spun at 500×g for 5 min and the supernatant was removed. Anti-NT5E antibodies were diluted to the desired concentration in 100 μL WB, added to the cells and the plates were incubated for 20 min at 37° C. Plates were spun and cells were washed twice with WB then spun a second time. Cells were stained with 100 μL of secondary antibody (Alexa Fluor 647 AffiniPure Goat Anti-Human IgG, F(ab′)2 fragment specific, #109-605-006, Jackson, 1:200) dilution and plates were incubated for 20 min at 37° C. Cells were washed twice with WB then fixed on ice with WB supplemented with 0.5% PFA. Fixing solution was removed by centrifugation and cells were resuspended in cold 1× PBS. Samples were analyzed by flow cytometry using CytoFLEX (Beckman Coulter) and mean fluorescence intensity (MFI) data was extracted using FlowJo software. Resulting binding data was plotted using OriginLab.

[3] = molecular target: T3, murine NT5E expressed on 4T1 cells; test: flow cytometry on 4T1 cells, 1 mM ATP
Method: as §1

Binder	TM of NT5E in the presence of the Fab [1] [° C.]	EC50 [2] [nM]	EC50 [3] [nM]
1789 Fab (Fab, V domains shown) VH: EVQLVESGGGLVQPGGSLRLSCAASGFNVSYSSIHWVRQAPGKGLEWVASISSSSGYTYYADSVKGRFTISADTSKNTAYLQMNSLRAEDTAVYYCARNYWGWYPFYYFAFDYWGQGTLVTV VL: DIQMTQSPSSLSASVGDRVTITCRASQSVSSAVAWYQQKPGKAPKLLIYSASSLYSGVPSRFSGSRSGTDFTLTISSLQPEDFATYYCQQGWDYPITFGQGTKVEIKR	66	52	
1789 IgG (antibody, V domains shown) VH: EVQLVESGGGLVQPGGSLRLSCAASGFNVSYSSIHWVRQAPGKGLEWVASISSSSGYTYYADSVKGRFTISADTSKNTAYLQMNSLRAEDTAVYYCARNYWGWYPFYYFAFDYWGQGTLVTVSS VL: DIQMTQSPSSLSASVGDRVTITCRASQSVSSAVAWYQQKPGKAPKLLIYSASSLYSGVPSRFSGSRSGTDFTLTISSLQPEDFATYYCQQGWDYPITFGQGTKVEIKR			37.3
